The source of these data is publication PMC10484726, “Archaeal Hel308 suppresses recombination through a catalytic switch that controls DNA annealing”.

Common to all, as to settings: protein: recombinant; tags: N-terminal His6; label: Cy5 (end label); fork
In one data set the target is T1, Mth-Hel308 F295A (Methanothermobacter thermautotrophicus, UniProt O26901 1-690, F295A).
T1 sequence: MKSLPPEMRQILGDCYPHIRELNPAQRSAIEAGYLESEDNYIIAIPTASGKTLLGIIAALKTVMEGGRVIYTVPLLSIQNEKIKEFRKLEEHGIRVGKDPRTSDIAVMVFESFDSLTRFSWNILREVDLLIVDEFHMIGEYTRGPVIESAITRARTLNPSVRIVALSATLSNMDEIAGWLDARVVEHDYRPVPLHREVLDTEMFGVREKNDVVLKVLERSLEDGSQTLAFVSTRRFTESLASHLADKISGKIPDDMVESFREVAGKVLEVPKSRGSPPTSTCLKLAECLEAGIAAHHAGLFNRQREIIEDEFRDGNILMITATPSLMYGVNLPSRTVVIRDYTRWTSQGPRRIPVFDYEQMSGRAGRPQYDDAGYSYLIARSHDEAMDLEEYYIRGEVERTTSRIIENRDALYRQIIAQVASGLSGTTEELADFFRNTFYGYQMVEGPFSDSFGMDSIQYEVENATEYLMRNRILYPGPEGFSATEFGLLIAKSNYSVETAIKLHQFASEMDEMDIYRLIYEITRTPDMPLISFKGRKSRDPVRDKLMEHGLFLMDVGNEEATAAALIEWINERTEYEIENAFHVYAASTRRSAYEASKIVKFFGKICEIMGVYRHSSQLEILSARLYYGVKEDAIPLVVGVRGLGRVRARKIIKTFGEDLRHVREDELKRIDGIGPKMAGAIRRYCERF
The data set can be described thus: EMSA; 5 mM EDTA; 25 nM DNA; EMSA: 20 mM Tris-HCl pH 7.5, 100 ug/ml BSA, 7% glycerol, 25 mM DTT, 5 mM EDTA, 25 nM Cy5-DNA; 5% TBE gel; no added salt stated; 37 C 10 min stated for duplex DNA reactions. Background: In EMSA bound probe runs differently from free probe, usually more slowly.

Another data set addresses T2, Mth-Hel308 R591A (Methanothermobacter thermautotrophicus, UniProt O26901 1-690, R591A).
T2 sequence: T1 sequence with A295F, R591A
The data set is described as above.

The next data set concerns the target T3, Mth-Hel308 Y586A (Methanothermobacter thermautotrophicus, UniProt O26901 1-690, Y586A).
T3 sequence: T1 sequence with A295F, Y586A
Description: EMSA; 5 mM EDTA; 25 nM DNA; similar to wild type; EMSA: 20 mM Tris-HCl pH 7.5, 100 ug/ml BSA, 7% glycerol, 25 mM DTT, 5 mM EDTA, 25 nM Cy5-DNA; 5% TBE gel; no added salt stated; 37 C 10 min stated for duplex DNA reactions.

Positions count from the first letter of the chain named.

B1: forked DNA substrate (dsDNA)
DNA 1: GTCGGATCCTCTAGACAGCTCCATGATCACTGGCACTGGTAGAATTCGGC
DNA 2: CAACGTCATAGACGATTACATTGCTACATGGAGCTGTCTAGAGGATCCGA
A word on the Kd: it is the equilibrium constant for the complex coming apart. With B1, the Kd with Mth-Hel308 F295A came to 19.3 nM. Further, the binding result with Mth-Hel308 R591A and with Mth-Hel308 Y586A was “binds” each time.
